Source: patent US20220226473A1, “Nucleic acid nanocarrier drug and preparation method thereof, pharmaceutical composition and application thereof” (BAI YAO ZHI DA (BEIJING) NANOBIO TECHNOLOGY CO., LTD., priority 2018, published 2022)
Residue numbers refer to the chain shown, from its start. Values joined by “and” are separate entries in the source; they are usually repeats but may differ in a detail not shown here. Identical values can stand only once. Oligonucleotides are written 5' to 3', each unit as a sugar letter and its base; * is a phosphorothioate linkage, no mark a phosphodiester; rarer units and linkages stand in square brackets, end groups in braces. Plain capitals give the bases only. {Biotin} = biotin of the strand; d = 2'-deoxy (DNA)

B1: R-15: extension fragment deformation+core short-sequence RNA nanoparticle, SEQ ID NO: 120-122, a-strand 3′ biotin, 2′F (nucleic acid)
chain 1: GCGGCGAGCGGCGAGGAGCGUUGGGGCCGGAGGCCGG
chain 2: CCGGCCUCCGGCCCCUUCGGGGCCAGCCGCC
chain 3: GGCGGCAGGCCCCCAUAGCCCUCGCCGCUCGCCGC
modifications: chain 1: 2'-fluoro at CU, RNA at AG, 3' {Biotin}, backbone not given here; chain 2: 2'-fluoro at CU, RNA at AG, backbone not given here; chain 3: 2'-fluoro at CU, RNA at AG, backbone not given here; three-strand RNA nanoparticle
B2: R-19: extension fragment deformation+core short-sequence RNA nanoparticle, SEQ ID NO: 132-134, 3′ biotin, 2′F (nucleic acid)
chain 1: B1 chain 1 with G16C, G23C
chain 2: B1 chain 2 with C15G, G21C, G22C
chain 3: B1 chain 3 with C10G, C11G, C20G
modifications: chain 1: 2'-fluoro at CU, RNA at AG, 3' {Biotin}, backbone not given here; chain 2: 2'-fluoro at CU, RNA at AG, backbone not given here; chain 3: 2'-fluoro at CU, RNA at AG, backbone not given here; three-strand RNA nanoparticle carrier
B3: R-16: extension fragment deformation+core short-sequence RNA nanoparticle, SEQ ID NO: 123-125, 3′ biotin, 2′F (nucleic acid)
chain 1: B1 chain 1 with G16C, G23C
chain 2: B1 chain 2 with C15G, G20C, G21C
chain 3: B1 chain 3 with C11G, C12G, C20G
modifications: chain 1: 2'-fluoro at CU, RNA at AG, 3' {Biotin}, backbone not given here; chain 2: 2'-fluoro at CU, RNA at AG, backbone not given here; chain 3: 2'-fluoro at CU, RNA at AG, backbone not given here; three-strand RNA nanoparticle
B4: R-18: extension fragment deformation+core short-sequence RNA nanoparticle, SEQ ID NO: 129-131, 3′ biotin, 2′F (nucleic acid)
chain 1: B1 chain 1 with G16C, G23C
chain 2: B1 chain 2 with C15G, G21C
chain 3: B1 chain 3 with C11G, C20G
modifications: chain 1: 2'-fluoro at CU, RNA at AG, 3' {Biotin}, backbone not given here; chain 2: 2'-fluoro at CU, RNA at AG, backbone not given here; chain 3: 2'-fluoro at CU, RNA at AG, backbone not given here; RNA nanoparticle drug carrier
B5: R-17: extension fragment deformation+core short-sequence RNA nanoparticle, SEQ ID NO: 126-128, 3′ biotin, 2′F (nucleic acid)
chain 1: B1 chain 1
chain 2: B1 chain 2 with G20C, G21C
chain 3: B1 chain 3 with C11G, C12G
modifications: chain 1: 2'-fluoro at CU, RNA at AG, 3' {Biotin}, backbone not given here; chain 2: 2'-fluoro at CU, RNA at AG, backbone not given here; chain 3: 2'-fluoro at CU, RNA at AG, backbone not given here; three-strand RNA nanoparticle
B6: R-20: extension fragment deformation+core short-sequence RNA nanoparticle, SEQ ID NO: 135-137, 3′ biotin, 2′F (nucleic acid)
chain 1: B1 chain 1 with G15C, G24C
chain 2: B1 chain 2 with C14G, G20C, G21C
chain 3: B1 chain 3 with C11G, C12G, C21G
modifications: chain 1: 2'-fluoro at CU, RNA at AG, 3' {Biotin}, backbone not given here; chain 2: 2'-fluoro at CU, RNA at AG, backbone not given here; chain 3: 2'-fluoro at CU, RNA at AG, backbone not given here; three-strand RNA nanoparticle carrier
B7: R-21: extension fragment deformation+core short-sequence RNA nanoparticle, SEQ ID NO: 138-140, 3′ biotin, 2′F (nucleic acid)
chain 1: B1 chain 1 with G15C, G24C
chain 2: B1 chain 2 with C14G, G21C
chain 3: B1 chain 3 with C11G, C21G
modifications: chain 1: 2'-fluoro at CU, RNA at AG, 3' {Biotin}, backbone not given here; chain 2: 2'-fluoro at CU, RNA at AG, backbone not given here; chain 3: 2'-fluoro at CU, RNA at AG, backbone not given here; three-strand RNA nanoparticle carrier
B8: D-7: conventional-sequence DNA nanoparticle without target head, strands SEQ ID NO: 117-119 (nucleic acid)
chain 1: dC*dG*dC*dGdCdGdCdCdCdAdCdGdAdGdCdGdTdTdGdCdGdGdGdCdGdC*dC*dG*dC
chain 2: dG*dC*dG*dGdCdGdCdCdCdGdCdTdTdCdGdGdCdGdGdCdAdGdGdC*dG*dG*dC
chain 3: dG*dC*dC*dGdCdCdAdGdCdCdGdCdCdCdAdTdAdGdCdCdGdTdGdGdGdCdGdC*dG*dC*dG
modifications: three-strand DNA nanoparticle
B9: D-6: conventional-sequence DNA nanoparticle without target head, strands SEQ ID NO: 114-116 (nucleic acid)
chain 1: dC*dG*dC*dGdCdGdCdCdCdAdGdCdAdGdCdGdTdTdCdGdGdGdGdCdGdC*dC*dG*dC
chain 2: dG*dC*dG*dGdCdGdCdCdCdCdGdTdTdCdGdGdCdCdGdGdCdAdGdGdC*dG*dG*dC
chain 3: dG*dC*dC*dGdCdCdAdGdCdCdGdGdCdCdCdAdTdAdGdCdGdCdTdGdGdGdCdGdC*dG*dC*dG
modifications: three-strand DNA nanoparticle

assay: Drug loading rate of nucleic acid nanoparticles (chemical loading, absorbance standard curve); assay type: physicochemical; design: unit not given here; conditions: chemical loading method of Embodiment 5
Text: According to the chemical loading method (unless otherwise specified, the method is the same as that of Embodiment 5) of Embodiment 5, the RNA nanoparticles formed by the self-assembly of the previous R-15, R-16, R-17, R-18, R-19, R-20 and R-21 in Embodiment 9, and the DNA nanoparticles formed by the self-assembly of the D-8, D-9, D-10, D-11, D-12, D-13 and D-14 in Embodiment 10 are respectively used as doxorubicin loading carriers, doxorubicin loading rates measured are respectively as follows:
According to the chemical loading method (unless otherwise specified, the method is the same as that of Embodiment 5) of Embodiment 5, the DNA nanoparticles formed by the self-assembly of the previous D-10 and D-14 in Embodiment 10 are used as a daunorubicin loading carrier.
According to a chemical loading method of Embodiment 5 (unless otherwise specified, the method is the same as that of Embodiment 5, the same molar number of the epirubicin is used as a loading amount), nucleic acid nanoparticles (a molecular weight is 29550, it is similar to the RNA nanoparticles in Embodiment 1, and a difference is that a fluorescent label on a c-strand is Cy5) are used as a carrier, and respectively loaded with: epirubicin, methotrexate, pirarubicin, daunorubicin, […], 10-hydroxycamptothecin, aspirin and gemcitabine.
Herein, when a standard curve is drawn, the absorbance of the above drugs on the microplate reader is measured respectively. The absorbance of the epirubicin, methotrexate, pirarubicin, daunorubicin, […], 10-hydroxycamptothecin, aspirin and gemcitabine is respectively detected at the following wavelengths: 492 nm, 303 nm, 492 nm, 492 nm, 265 nm, 384 nm, 225 nm and 268 nm. The standard curves obtained correspondingly are respectively shown in FIG. 48a, FIG. 49, FIG. 50sa, FIG. 51, FIG. 52, FIG. 53, FIG. 54a and FIG. 55. […]

First: B1
Second: B2
The doxorubicin loading rate of the first is lower: 20.5 for the first, 27.1 for the second.

Compared with B3, B4 is higher in doxorubicin loading rate: 29.4 for the first, 34.1 for the second.

Going from B5 to B6, the doxorubicin loading rate falls from 30.9 to 30.2.

In the case of B7, the doxorubicin loading rate is reported as 20.1.

assay: Particle size measurement (DLS hydrodynamic size); assay type: physicochemical; conditions: DLS hydrodynamic size
Text: 1. Preparing a potential sample (conventional-sequence DNA self-assembly product D-7) and putting into a sample pool, opening a sample pool cover of an instrument, and placing the instrument;
2. opening software, and clicking a menu, so a manual measurement parameter setting dialog box appears;
3. setting a software detection parameter; and then
4. clicking Ok to complete the settings, when a measurement dialog box appears, clicking Start to start, a DLS measurement value result of a hydrodynamic size of the self-assembly product D-7 is shown below in Table 40: […]

Going from B1 to B2, the “Mean particle size (nm)” value rises from 6.808 nm to 6.936 nm.

Going from B3 to B4, the “Mean particle size (nm)” value rises from 6.978 nm to 7.520 nm.

Going from B5 to B7, the “Mean particle size (nm)” value falls from 7.592 nm to 6.720 nm.

In the case of B6, the “Mean particle size (nm)” value is reported as 7,110 nm.

same assay, conditions: result over 3 detections, DLS

For B8, the “Particle size Z-Ave, Experiment result” value was 12.33 d.nm (±1.57 d.nm).

same assay, conditions: single detection (detection times 1-3), DLS

With B8 the “Particle size Z-Ave” value was 10.76 nm·days and 13.9 nm·days and 10.36 nm·days.

assay: TM value detection by solubility curve method (SYBR Green I); assay type: physicochemical; conditions: RNA nanoparticles; temperature corresponding to ½ RFUmax in 20 to 90 DEG C.
Experimental: A solubility curve method is used to detect TM values of the 7 groups of the extension fragment deformation+core short-sequence RNA nanoparticles, and the samples are consistent with the potential samples.
(1) After the sample is diluted with ultrapure water, 5 μg of the diluted sample is mixed with 2 μL of SYBR Green I dye (diluted by 1:200), a final volume is 20 μL, and the dilution concentration is as follows:
(2) It is incubated for 30 min in the dark at a room temperature; and
(3) On-machine detection is performed, a program is set to start at 20 DEG C., the temperature rises per second from 0.1 DEG C. to 95 DEG C., and reading is performed every 5 s.
Due to the particularity of the RNA samples, a temperature corresponding to ½ RFUmax in a range of 20 to 90 DEG C. is used as a sample Tm value in this test.
A solubility curve method is used to detect TM values of the 7 groups of the extension fragment deformation+core short-sequence DNA nanoparticles, and the samples are consistent with the potential samples.
(1) After the sample is diluted with ultrapure water, 5 μg of the diluted sample is mixed with 2 μL of SYBR Green I dye (diluted by 1:200). a final volume is 20 μL, and the dilution concentration is as follows: […]

Going from B1 to B2, the “TM value (° C.)” value falls from 57.5 °C to 54.0 °C.

First: B3
Second: B4
The “TM value (° C.)” value of the first is lower: 53.8 °C for the first, 54.5 °C for the second.

Compared with B5, B6 is higher in “TM value (° C.)” value: 55.2 °C for the first, 59.5 °C for the second.

With B7 the “TM value (° C.)” value was 65.0 °C.

assay: Electric potential (zeta potential) measurement of self-assembly products; assay type: physicochemical; conditions: result over 3 detections, at 25 DEG C.
Experimental: Measurement method: preparing a potential sample (the self-assembly product is dissolved in ultrapure water) and putting into a sample pool, opening a sample pool cover of an instrument, and placing the instrument;
opening software, clicking a menu MeasUre€ManUal, so a manual measurement parameter setting dialog box appears;
setting a software detection parameter;
and then clicking Ok to complete the settings, after a measurement dialog box appears, clicking start to start.
and then clicking Ok to complete the settings, after a measurement dialog box appears, clicking Start to start.
Measurement method: preparing a potential sample (the self-assembly product is dissolved in ultrapure water) and putting into a sample pool, opening a sample pool cover of an instrument, and placing the instrument:
Measurement result potential detection results of the 7 groups of the extension fragment deformation+core short-sequence RNA nanoparticles at 25 DEG C. are as follows:
setting a software detection parameter; and then
clicking Ok to complete the settings, after a measurement dialog box appears, clicking Start to start.
Measurement result potential detection results of the 7 groups of the extension fragment deformation+core short-sequence DNA nanoparticles at 25 DEG C. are as follows: […]

Compared with B1, B2 is higher in “Potential ZP, Experiment result” value: −23.23 mV for the first, −18.30 mV for the second.

Going from B3 to B4, the “Potential ZP, Experiment result” value falls from −20.93 mV to −21.27 mV.

First: B5
Second: B6
The “Potential ZP, Experiment result” value of the first is lower: −23.50 mV for the first, −17.90 mV for the second.

For B7, the “Potential ZP, Experiment result” value was −16.10 mV.

same assay, conditions: result over 3 detections, sample in ultrapure water

With B8 the “Potential ZP, Experiment result” value was −32.20 mV (±0.0.5 mV).
In the case of B9, the “Potential ZP, Experiment result” value is reported as −31.90 mV (±0.2 mV).
